Reference: paper doi:10.1101/2025.08.07.669093 (bioRxiv, 2025)

Legend:
Assay in all cases: ITC
[1] = biological target: Escherichia coli RelA, full-length (Escherichia coli (K-12 entry; strain …, UniProt P0AG20)
[2] = biological target: RelCt^R215E (Chlorobaculum tepidum)
[3] = biological target: Rel from Chlorobaculum tepidum, full-length (Chlorobaculum tepidum (TLS entry; …, UniProt Q8KC80)

Sequence of Escherichia coli RelA, full-length (Escherichia coli (P0AG20 whole entry): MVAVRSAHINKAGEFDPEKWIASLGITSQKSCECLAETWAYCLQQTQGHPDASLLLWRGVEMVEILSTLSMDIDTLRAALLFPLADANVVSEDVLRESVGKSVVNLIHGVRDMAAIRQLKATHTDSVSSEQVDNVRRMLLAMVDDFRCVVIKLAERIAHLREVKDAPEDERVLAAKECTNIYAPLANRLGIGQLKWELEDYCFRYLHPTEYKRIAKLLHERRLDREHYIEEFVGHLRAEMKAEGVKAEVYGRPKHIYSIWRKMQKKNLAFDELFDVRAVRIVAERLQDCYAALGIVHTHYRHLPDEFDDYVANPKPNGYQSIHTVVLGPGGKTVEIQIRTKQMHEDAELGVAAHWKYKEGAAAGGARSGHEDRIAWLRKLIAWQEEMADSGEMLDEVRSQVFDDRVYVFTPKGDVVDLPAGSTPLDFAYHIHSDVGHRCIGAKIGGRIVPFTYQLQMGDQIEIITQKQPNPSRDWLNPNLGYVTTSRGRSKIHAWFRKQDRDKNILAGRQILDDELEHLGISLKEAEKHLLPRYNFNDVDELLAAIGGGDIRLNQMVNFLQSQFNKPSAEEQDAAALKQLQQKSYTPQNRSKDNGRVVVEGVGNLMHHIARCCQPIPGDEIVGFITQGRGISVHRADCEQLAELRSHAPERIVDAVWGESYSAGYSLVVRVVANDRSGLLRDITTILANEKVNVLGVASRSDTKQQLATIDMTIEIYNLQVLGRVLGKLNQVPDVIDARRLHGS

Row | Binder | Kd [1] [nM] | Kd [3] [nM] | other results
1 | Nb94 (VHH) VHH: QVQLVESGGGMVQPGGSLRLSCAASGFTFSTYSMGWFRQAPGQEREFVAAISWSGDSAYYADSVKGRFTISRDNAKNTVYLQMNSLKFEDTAVYYCNADLDGLGYDYWGQGTQVTVS | 13 | – | –
2 | Nb96 (VHH) VHH: QVQLQESGGGLVQAGGSLRLSCAASGSIFDIKVMAWYRQAPGKSRELVAVHASADDSTTYEKSVKGRFTISRDNAKNTVYLQMNSLKPEDTAIYYCNRIPNFTHWGQGTQVTVS | 157 | – | –
3 | Nb120 (VHH) VHH: QVQLVESGGGLVQPGGSLRLSCAASGTIRSLNAMAWYRQAPGKERELAARISSGGTTTYADSVKGRFTISRDNAKNTLYLQMNSLKPEDTAVYYCKANRFSTYGYRDDIWGQGTQVTVS | – | – | binding result [1]: no binding
4 | Nb585 (VHH) VHH: QVQLQESGGGLVQAGGSLRLSCAASGFTFEDYTIGWFRQAPGKEREGVSLISNSDGFTSYADSVKGQFTISSENAKNTVYLQMDNLKPEDTAVYYCAATEVLAHLMWRPSNWGYWGQGTQVTV | – | 21 | fold drop in affinity against RelCt [2]: 28 fold
5 | Nb898 (VHH) VHH: QVQLQESGGGLVQAGGSLRLSCAASGSIESINAMAWYRQAPGKPRELVAVIAKSDGSTTYAVPVKGRFTISRDDAKNTVYLQMNSLKPEDTAIYYCNKIPNFTYWGQGTQVTVSS | – | 186 | –
